The record followed here is patent US20040054158A1 (GENETICS INSTITUTE, published 2004).

T1: murine GL50-1 (mGL50-1) expressed on transfected COS cells (mouse, UniProt Q9JHJ8 47-322)
T1 construct: 322 amino acid protein
T1 sequence: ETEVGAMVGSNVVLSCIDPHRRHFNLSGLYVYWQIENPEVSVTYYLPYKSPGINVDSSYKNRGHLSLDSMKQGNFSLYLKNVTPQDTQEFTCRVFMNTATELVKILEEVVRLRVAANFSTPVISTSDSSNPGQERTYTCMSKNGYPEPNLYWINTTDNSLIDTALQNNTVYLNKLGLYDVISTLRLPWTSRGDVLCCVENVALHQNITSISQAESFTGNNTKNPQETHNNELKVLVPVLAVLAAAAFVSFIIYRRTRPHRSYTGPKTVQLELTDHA

T2: murine GL50-2 (mGL50-2) expressed on transfected COS cells (mouse, UniProt Q9JHJ8 44-320)
T2 construct: Alternatively spliced form of 347 residues; also called mGL50-B
T2 sequence: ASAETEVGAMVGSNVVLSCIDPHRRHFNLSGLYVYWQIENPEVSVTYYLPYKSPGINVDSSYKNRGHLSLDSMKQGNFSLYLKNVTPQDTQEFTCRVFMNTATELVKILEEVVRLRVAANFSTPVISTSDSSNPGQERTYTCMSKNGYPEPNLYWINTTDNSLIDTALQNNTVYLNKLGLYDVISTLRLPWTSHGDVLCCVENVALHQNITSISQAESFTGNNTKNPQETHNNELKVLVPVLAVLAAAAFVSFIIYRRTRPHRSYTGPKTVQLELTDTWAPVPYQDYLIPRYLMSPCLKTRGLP

T3: mouse B7-1 on cells (WEHI 231, undifferentiated ES cells) (mouse, UniProt Q00609 38-306)
T3 construct: whole, on cells; also called CD80
T3 sequence (looked up): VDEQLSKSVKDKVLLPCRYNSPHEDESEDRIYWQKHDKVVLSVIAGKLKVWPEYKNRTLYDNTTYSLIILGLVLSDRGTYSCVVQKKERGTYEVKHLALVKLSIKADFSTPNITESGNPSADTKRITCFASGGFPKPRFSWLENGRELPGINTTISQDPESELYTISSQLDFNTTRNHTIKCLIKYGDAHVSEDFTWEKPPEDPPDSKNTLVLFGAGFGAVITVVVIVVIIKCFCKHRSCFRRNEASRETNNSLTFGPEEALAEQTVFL

T4: mouse B7-2 on WEHI 231 cells (mouse, UniProt P42082 24-309)
T4 construct: whole, on cells; also called CD86
T4 sequence (looked up): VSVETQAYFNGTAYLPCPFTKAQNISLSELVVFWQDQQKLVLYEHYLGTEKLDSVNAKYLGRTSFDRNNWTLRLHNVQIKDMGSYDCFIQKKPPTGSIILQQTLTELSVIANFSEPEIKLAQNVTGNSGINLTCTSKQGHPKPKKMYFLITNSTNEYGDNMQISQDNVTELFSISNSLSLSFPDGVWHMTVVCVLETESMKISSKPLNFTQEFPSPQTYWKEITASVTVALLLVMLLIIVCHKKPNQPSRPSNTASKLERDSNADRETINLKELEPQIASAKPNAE

T5: CD28-Ig (mouse, UniProt P31041 20-150)
T5 construct: not shown: Ig part not described
T5 sequence (looked up): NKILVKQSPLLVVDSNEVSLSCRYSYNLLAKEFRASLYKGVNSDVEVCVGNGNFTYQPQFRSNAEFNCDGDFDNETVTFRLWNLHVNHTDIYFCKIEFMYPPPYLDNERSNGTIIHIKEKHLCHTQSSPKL

B1: hICOS-mIgG2am (Fc fusion)
chain: EINGSANYEMFIFHNGGVQILCKYPDIVQQFKMQLLKGGQILCDLTKTKGSGNTVSIKSLKFCHSQLSNNSVSFFLYNLDHSHANYYFCNLSIFDPPPFKVTLTGGYLHIYESQLCCQLKFEPRGPTIKPCPPCKCPAPNLEGGPSVFIFPPKIKDVLMISLSPIVTCVVVDVSEDDPDVQISWFVNNVEVHTAQTQTHREDYNSTLRVVSALPIQHQDWMSGKAFACAVNNKDLPAPIERTISKPKGSVRAPQVYVLPPPEEEMTKKQVTLTCMVTDFMPEDIYVEWTNNGKTELNYKNTEPVLDSDGSYFMYSKLRVEKKNWVERNSYSCSVVHEGLHNHHTTKSFSRTPGK
notes: Fusion of human ICOS with the mutated mouse IgG2a domain
B2: mICOS-mIgG2am (Fc fusion)
chain: EINGSADHRMFSFHNGGVQISCKYPETVQQLKMRLFREREVLCELTKTKGSGNAVSIKNPMLCLYHLSNNSVSFFLNNPDSSQGSYYFCSLSIFDPPPFQERNLSGGYLHIYESQLCCQLKLEPRGPTIKPCPPCKCPAPNLEGGPSVFIFPPKIKDVLMISLSPIVTCVVVDVSEDDPDVQISWFVNNVEVHTAQTQTHREDYNSTLRVVSALPIQHQDWMSGKAFACAVNNKDLPAPIERTISKPKGSVRAPQVYVLPPPEEEMTKKQVTLTCMVTDFMPEDIYVEWTNNGKTELNYKNTEPVLDSDGSYFMYSKLRVEKKNWVERNSYSCSVVHEGLHNHHTTKSFSRTPGK
notes: Fusion of mouse ICOS with a mouse IgG2a domain mutated to reduce effector function; also called ICOS-Ig; ICOS Ig
B3: human DAP-12 expressed on transfected COS cells (other, UniProt O43914 22-113, looked up)
chain: LRPVQAQAQSDCSCSTVSPGVLAGIVMGDLVLTVLIALAVYFLGRLVPRGRGAAEAATRKQRITETESPYQELQGQRSDVYSDLNTQRPYYK
notes: whole, on cells; Negative control transfectant

The target of experiment [1] is T1, murine GL50-1 (mGL50-1) expressed on …. The experiment in a line: flow cytometry on transfected COS cells. In general terms: A flow cytometer gives signals particle by particle.
Experiment [2] deals with T2, murine GL50-2 (mGL50-2) expressed on …. The experiment in a line: flow cytometry on transfected COS cells.
The target in experiment [3] is T3, mouse B7-1 on cells (WEHI 231, …). The experiment in a line: flow cytometry on WEHI 231 cells with blocking anti B7-1 and B7-2 antibodies.
The target of experiment [4] is T4, mouse B7-2 on WEHI 231 cells. The experiment is described as above.
Experiment [5] deals with B3. Kind of experiment: flow cytometry on transfected COS cells.
The next experiment deals with T5, CD28-Ig. The experiment in a line: flow cytometry on transfected COS cells.

As for B1, the binding result in experiment [1] and in experiment [2] was “binds” in each case.

As to B2, the binding result in experiment [3] is given as “no binding”; in experiment [4], “no binding”; in experiment [5] it was “no binding (tested: 5 µg/ml of fusion protein)”.

In the case of B3, the binding result with CD28-Ig is given as “no binding (tested: 5 µg/ml of fusion protein)”.
